We go through one protein from article PMC4576865 (The Journal of Cell Biology, 2015).

This data set concerns the molecule itself. Kind of data set: native gel or EMSA.

B1: Ugo1 precursor, 35S-labeled (natural protein, S. cerevisiae, UniProt Q03327 1-502, looked up)
chain: MNNNNVTEATSRAQIRPYYDPDSFNAGYSAVFKPDEGVVDPHGYTIASKLNVINSSPTTKRMANALFKSSPMKKLSNSVNDGLSLEGSNGEITGLNNFEWAELVNIQKWRKIFEQLLDMFFRKYFQLLIQQPFDVARLLIQVGEFKIFKTTVDTNKPQAPIILRDEEGDGAAREGEEDAYDEEEIDFFPIERKIAEANSTAPIMAEETDHSHHEPTDISLTIAPQSLHTIDVINALFDQEGIRGLWKANNTTFIYNFLSLSIDTWFTGLLSSFLGVPDPYFMEVINSPDISKSFILALGAGVFTSIILLPVDLIRTRLIVTSFKKKKNVKTDGKNMVTNTRSLRQLIRCWSWRKNGVSIPLDMWSLTILQSINNSFFNKLFDLVIYNQFHIEKYSQTVMYNTMKFFSKSLELFIKLPLENLLRRCQLNYLLNDQRLSFKVDSTELIVKPKKYNGIWDVIRNNSNTNRGQLWNGWKVGVISLICGYGLQMMNKVDINMEQEKF
modifications: [35S]methionine
Turning to B1, the “stoichiometry N” value amounted to 2.

As usually defined, the stoichiometry N is a count of units in the complex or per binding partner.
